From patent publication US20190315842A1 (DUKE UNIVERSITY, published 2019)
Several values for one entry are separate records, joined by “and”; a condition that tells them apart may be missing. Equal values may be shown once.

T1: centromere B (CentB) (UniProt P07199 2-599)
T1 sequence (looked up): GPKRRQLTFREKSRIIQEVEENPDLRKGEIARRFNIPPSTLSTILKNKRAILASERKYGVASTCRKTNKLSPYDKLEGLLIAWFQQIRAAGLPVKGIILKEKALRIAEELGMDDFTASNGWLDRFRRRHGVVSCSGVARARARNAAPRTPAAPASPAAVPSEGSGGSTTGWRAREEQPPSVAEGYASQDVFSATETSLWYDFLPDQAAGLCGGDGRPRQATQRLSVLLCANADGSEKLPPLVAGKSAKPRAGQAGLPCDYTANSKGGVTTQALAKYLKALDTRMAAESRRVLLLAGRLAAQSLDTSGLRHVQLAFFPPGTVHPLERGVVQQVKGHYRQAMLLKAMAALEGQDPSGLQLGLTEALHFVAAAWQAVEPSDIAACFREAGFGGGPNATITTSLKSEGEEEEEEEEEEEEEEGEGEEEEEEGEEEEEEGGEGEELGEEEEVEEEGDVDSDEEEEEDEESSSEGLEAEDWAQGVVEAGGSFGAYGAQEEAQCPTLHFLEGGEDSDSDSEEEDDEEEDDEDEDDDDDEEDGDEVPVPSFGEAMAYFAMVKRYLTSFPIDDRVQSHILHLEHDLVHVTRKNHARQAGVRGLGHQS

T2: systemic lupus erythematosus autoantigen SSB (UniProt P05455 1-408, limits assumed)
T2 sequence (looked up): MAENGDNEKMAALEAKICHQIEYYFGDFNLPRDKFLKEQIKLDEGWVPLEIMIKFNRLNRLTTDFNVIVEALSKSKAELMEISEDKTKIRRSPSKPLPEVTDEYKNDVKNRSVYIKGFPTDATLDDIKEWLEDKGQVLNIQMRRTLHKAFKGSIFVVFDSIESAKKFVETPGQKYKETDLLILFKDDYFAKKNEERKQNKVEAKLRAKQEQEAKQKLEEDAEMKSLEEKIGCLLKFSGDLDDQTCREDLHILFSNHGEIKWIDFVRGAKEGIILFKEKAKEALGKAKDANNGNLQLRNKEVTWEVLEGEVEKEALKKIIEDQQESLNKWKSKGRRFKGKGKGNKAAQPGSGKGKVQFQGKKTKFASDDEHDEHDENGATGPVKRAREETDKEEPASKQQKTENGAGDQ

T3: 15-mer peptide GPPPPIDNGDITSFP (SEQ ID NO: 114) (human)
T3 construct: Immobilized for SPR; also called parent peptide
T3 peptide: GPPPPIDNGDITSFP

T4: reduced SCR19-20 (human CFH short consensus repeat domains 19 and 20, reduced) (human, UniProt P08603 1107-1231, disulfides reduced with TCEP or reducing SDS-PAGE)
T4 construct: domain: SCR19-20; Same construct as m3, reduced
T4 sequence (looked up): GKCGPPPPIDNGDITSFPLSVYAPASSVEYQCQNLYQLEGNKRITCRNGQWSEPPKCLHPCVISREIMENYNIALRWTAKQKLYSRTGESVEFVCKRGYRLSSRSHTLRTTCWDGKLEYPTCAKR


Legend:
centromere B (CentB) [1] = target: T1, centromere B (CentB); experiment: AtheNA Multi-Lyte ANA, Ab at 6.25 ug/ml;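 note: monoclonal antibodies screened for reactivity against a panel of nuclear autoantigens, with an anti-HIV and an anti-RSV monoclonal antibody serving as controls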
Method: (§1) All 7 mAbs were tested against the AtheNA Multi-Lyte panel of autoantigens. The AtheNA Multi-Lyte ANA test for a panel of nuclear antigens: systemic lupus erythematosus autoantigens SSA and SSB, sphingomyelin (Sm), ribonucleoprotein (RNP), sclerosis autoantigen (Scl-70), histidine-tRNA ligase (Jo-1), double-stranded DNA (dsDNA), centromere B (CentB), and histones. 4e10 (Anti HIV, NIH AIDS Reagent Program) and SYNAGIS® (anti-RSV monoclonal antibody palivizumab; “Synagis”) were used a controls.

centromere B (CentB) [2] = target: T1, centromere B (CentB); experiment: AtheNA Multi-Lyte ANA, Ab at 12.5 ug/ml;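 note: monoclonal antibodies screened for binding to a panel of nuclear autoantigens (SSA, SSB, Sm, RNP, Scl-70, Jo-1, dsDNA, CentB, histones), with anti-HIV and anti-RSV antibodies as controls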
centromere B (CentB) [3] = target: T1, centromere B (CentB); experiment: AtheNA Multi-Lyte ANA, Ab at 25 ug/ml
Method: as §1

[4] = target: T5, Complement Factor H (CFH) protein, full-length (human, UniProt P08603 19-1231); experiment: immunoblot, SDS-PAGE under non-reducing conditions, antibody at 0.5 µg/ml, anti-human IgG-HRP, chemiluminescence; lane numbers as in Table 10
T5 construct: also called full-length CFH; native CFH

[5] = target: T6, reduced form of Complement Factor H (CFH), treated with TCEP (human, UniProt P08603 19-1231, disulfides reduced with 10 mM TCEP); experiment: immunoblot, SDS-PAGE under reducing conditions, antibody at 0.5 µg/ml, anti-human IgG-HRP, chemiluminescence; lane numbers as in Table 10
T6 construct: also called reduced CFH; reduced form of CFH

[6] = target: T2, systemic lupus erythematosus …; experiment: AtheNA Multi-Lyte ANA, Ab at 6.25 ug/ml;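 note: monoclonal antibodies screened for reactivity against a panel of nuclear autoantigens, with an anti-HIV and an anti-RSV monoclonal antibody serving as controls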
Method: as §1

[7] = target: T2, systemic lupus erythematosus …; experiment: AtheNA Multi-Lyte ANA, Ab at 25 ug/ml
Method: as §1

[8] = target: T3, 15-mer peptide GPPPPIDNGDITSFP (SEQ ID …); experiment: SPR (BIAcore), mAb at 25, 50 or 100 nM over immobilized 15-mer peptide
[9] = target: T4, reduced SCR19-20 (human CFH short …); experiment: immunoblot, SDS-PAGE under reducing conditions, anti-human IgG-HRP, chemiluminescence; lane numbers as in Table 10
[10] = target: T6, reduced form of Complement Factor H …; experiment: as above
[11] = target: T5, Complement Factor H (CFH) protein, …; experiment: immunoblot, SDS-PAGE under non-reducing conditions, anti-human IgG-HRP, chemiluminescence; lane numbers as in Table 10

| AtheNA signal (centromere B (CentB) [1]) | AtheNA signal (centromere B (CentB) [2]) | AtheNA signal (centromere B (CentB) [3]) | binding result [4] | binding result [5] | AtheNA signal [6] | AtheNA signal [7] | Kd [8] | koff [8] | kon [8] | binding result [9] | binding result [10] | binding result [11] | Binder |
| --- | --- | --- | --- | --- | --- | --- | --- | --- | --- | --- | --- | --- | --- |
| 2 | 2 | 2 | binds | binds | – | – | – | – | – | – | – | – | Ab7957/293i (antibody, IgG1, V domains shown, Recombinant human antibody with IgG1 heavy chain backbone and kappa light chain constant; they begin at LVESGGG and MTQSP; also called Ab7957i; mAb 7957) VH: LVESGGGVVPPGKSLRLSCAASGFTFSLYGIHWVRQAPGKGLEWVAVISYDGNTKYYTDSVKGRFTISRDNAKNTIYLQMNSLRLDDTAVYYCAKGAANSATFDFWGRGTMVTVSS VL: MTQSPDSLTLSLGERATINCRSSRTVLYRSNNKNYLAWYQHKPGQPPKLLMSWASTRETGVPDRFSGSGSGTHFTLTITSLQPEDVAVYYCQQYYSPPWTFGQGTKVEIR |
| – | – | – | – | – | 7 | 8 | ~2.5 pM and 2.46 pM | 5.56e-07 s⁻¹ | 226000 M⁻¹ s⁻¹ | – | – | – | Ab7968 (antibody, IgG1, V domains shown, Recombinant human antibody with IgG1 heavy chain backbone and kappa light chain constant; they begin at LVESGGG and MTQSP; also called mAb 7968; mAb7968) VH: LVESGGGVVQPGRSLRLSCAASGFTFSRYGMHWVRQAPGKGLEWVAVMSYDGSTKYYADSVKGRFAISRDNPKNTLFLQMNSLRPDDTAVYYCAKGGAAAAVMDVWGKGTTVTVSS VL: MTQSPDSLTVSLGERATISCKSSQRLLYSSNNKNYLAWYQQKPGQPPKLLMYWASTRESGVPDRFSGSGSGTDFSLTISSLQAEDVAVYYCQQYYNPPWTFGQGTKVEVK |
| 1 | 2 | – | – | – | 1 | – | – | – | – | no binding (tested: 0.5 µg/ml) | no binding (tested: 0.5 µg/ml) | no binding (tested: 0.5 µg/ml) | Ab7962/293i (antibody, V domains shown, Recombinant human antibody with IgG1 heavy chain backbone and kappa light chain constant (IgM in the donor B cell); they begin at LVESGGG and MTQSL; also called clone 27; pH007962/pK005996) VH: LVESGGGLVQPGGSLRLSCAASGFTFSSYEMNWVRQAPGKGLEWVSYISSSGSTIYYADSVKGRFTISRDNAKNSLYLQMNSLRAEDTAVYYCARVEQLAPSPYMDVWGKGTTVTVSS VL: MTQSLDSLTVSLGERATINCKSSQSLLYTSNNKNYLAWYQQKSGQPPKLLIYWASIRDSGVPDRFSGSGSATDFTLTINNLQAEDVAVYFCQQYYKTPLTFGGGTKVEVR |
